Patent USRE38424E1 (The United States of America as represented by the …, priority 1994, dated 2004)
Like-named read-outs stand apart in the source and are kept apart here.

Conditions: for Duration of Neutropenia in Neutropenic Cycles, Median / Duration of Neutropenia in Neutropenic Cycles, Range / Nadirs in Neutropenic Cycles, Median / Nadirs in Neutropenic Cycles, Range / Duration of Neutropenia in Neutropenic Cycles, Mean / Nadirs in Neutropenic Cycles, Mean / Day of Onset of Neutropenia in Neutropenic Cycles, Median / Day of Onset of Neutropenia in Neutropenic Cycles, Range / Day of Onset of Neutropenia in Neutropenic Cycles, Mean / Nadir (all cycles), Median / Nadir (all cycles), Range / Nadir (all cycles), Mean: taxol 250 mg/m^2/21 days
From the text: A total of 47 patients were included in this study. All patients had recurrent advanced stage epithelial ovarian cancer confirmed on histologic review at the Laboratory of Pathology, National Cancer Institute (NCI). Borderline, mixed, and germ cell histologies were excluded.
Pretreatment evaluation consisted of a physical examination, laboratory studies with CA-125, radiographic evaluation by CT scan, baseline electromyogram with nerve conduction velocity studies (EMG/NCV), creatinine clearance, chest radiograph, and EKG. On-study staging was completed within two weeks of starting therapy. Physical examination and laboratory evaluations were repeated with every cycle, except for CBC which was evaluated twice weekly. Patients underwent restaging every two cycles (i.e., every 6 weeks), which included the repetition of any radiographic studies that were abnormal upon entry. EMG/NCV studies were repeated as indicated to determine the presence of any progressive neurologic toxicity.
The G-CSF was supplied to the Division of Cancer Treatment by Amgen, Inc. (Thousand Oaks, Calif.). This G-CSF administration continued until the absolute granulocyte count of the patient was greater than 1500/μl for two consecutive days after the nadir (i.e., the total count for the two days was at least 3000/μl ) or until the total white blood cell count was greater than 30,000/μl. Patients with responding disease or stable disease continued on the study and were reevaluated at two cycle intervals.
Patients manifesting second or third degree heart block had remaining cycles given in the intensive care unit with appropriate interventions. Antiemetics were given as needed.
More specifically, this was undertaken by increasing the dose of G-CSF administered on the next treatment cycle.
The particulars pertaining to the flexible G-CSF dosage regimen are as follows. […] The dose of G-CSF was reduced by 5 μg/kg/day if severe bone pain occurred at these higher G-CSF dosage levels, i.e., at levels greater than or equal to 10 μg/kg/day.

B1: G-CSF: granulocyte colony-stimulating factor, available from Amgen, Inc. (protein, UniProt P09919 31-207, looked up)
Granulocyte …: TPLGPASSLPQSFLLKCLEQVRKIQGDGAALQEKLVSECATYKLCHPEELVLLGHSLGIPWAPLSSCPSQALQLAGCLSQLHSGLFLYQGLLQALEGISPELGPTLDTLQLDVADFATTIWQQMEELGMAPALQPTQGAMPAFASAFQRRAGGVLVASHLQSFLEVSYRVLRHLAQP
- Duration of Neutropenia in Neutropenic Cycles, Median (10 μg/kg G-CSF, 49 cycles): 1 days
- Duration of Neutropenia in Neutropenic Cycles, Range (10 μg/kg G-CSF, 49 cycles): 1 to 4 days
- Nadirs in Neutropenic Cycles, Median (10 μg/kg G-CSF, 49 cycles): 162
- Nadirs in Neutropenic Cycles, Range (10 μg/kg G-CSF, 49 cycles): 0-494
- Duration of Neutropenia in Neutropenic Cycles, Mean (10 μg/kg G-CSF, 49 cycles, ± 0.7 on wrapped line): 1 days
- Nadirs in Neutropenic Cycles, Mean (10 μg/kg G-CSF, 49 cycles, ± 158 on wrapped line): 178
- Day of Onset of Neutropenia in Neutropenic Cycles, Median (10 μg/kg G-CSF, 54 cycles): 7 days
- Day of Onset of Neutropenia in Neutropenic Cycles, Range (10 μg/kg G-CSF, 54 cycles): 5 to 9 days
- Day of Onset of Neutropenia in Neutropenic Cycles, Mean (10 μg/kg G-CSF, 54 cycles, ± 0.8 on wrapped line): 7 days
- Nadir (all cycles), Median (10 μg/kg G-CSF, 130 cycles): 865
- Nadir (all cycles), Range (10 μg/kg G-CSF, 130 cycles): 0-6232
- Nadir (all cycles), Mean (10 μg/kg G-CSF, 130 cycles, ± 1636 on wrapped line): 1341
- Day of Onset of Neutropenia in Neutropenic Cycles, Median (20 μg/kg G-CSF, 20 cycles): 7 days
- Day of Onset of Neutropenia in Neutropenic Cycles, Range (20 μg/kg G-CSF, 20 cycles): 6 to 11 days
- Duration of Neutropenia in Neutropenic Cycles, Median (20 μg/kg G-CSF, 20 cycles): 1 days
- Duration of Neutropenia in Neutropenic Cycles, Range (20 μg/kg G-CSF, 20 cycles): 1 to 5 days
- Nadirs in Neutropenic Cycles, Median (20 μg/kg G-CSF, 20 cycles): 191
- Nadirs in Neutropenic Cycles, Range (20 μg/kg G-CSF, 20 cycles): 0-493
- Duration of Neutropenia in Neutropenic Cycles, Mean (20 μg/kg G-CSF, 20 cycles, ± 0.9 on wrapped line): 1 days
- Day of Onset of Neutropenia in Neutropenic Cycles, Mean (20 μg/kg G-CSF, 20 cycles, ± 1.1 on wrapped line): 7 days
- Nadirs in Neutropenic Cycles, Mean (20 μg/kg G-CSF, 20 cycles, ± 155 on wrapped line): 200
- Nadir (all cycles), Median (20 μg/kg G-CSF, 42 cycles): 626
- Nadir (all cycles), Range (20 μg/kg G-CSF, 42 cycles): 0-6536
- Nadir (all cycles), Mean (20 μg/kg G-CSF, 42 cycles, ± 1430 on wrapped line): 1204
- Patients in whom the G-CSF dose is poorly tolerated (in vivo): about 5%
- Patients whose G-CSF doses were modified for bone pain (phase II): two
- Bone Pain, G-CSF DR (dose reduction) (phase II, 47 patients): 3 (6) No. (%)
